Test results reported in the supplement of paper PMC10567573.
± gives the standard deviation.

Experiment: protein stability index of a GFP-peptide fusion (GPS, HEK-293T) (PSI 1-6); higher = more stable
Conditions: c terminus: a fixed tail appended
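Further: 24-mer peptide tiles fused after GFP, lentivirally expressed, FACS-sorted into six equal bins by GFP/DsRed ratio, decoded by Illumina sequencing, PSI is the read-weighted mean bin number.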

Row | Sequence | protein stability index (treatment: DMSO) | protein stability index (treatment: MLN4924 1 uM, 8 h)
1 | AADDFRLKYENELALRQGVEADIN [KRT15] | 4.77 ± 0.29 | 4.64 ± 0.23
2 | AADIVNFLTVGSVLQMWHIVDKCT [ZBTB22] | 3.24 ± 0.88 | 3.65 ± 0.2
3 | AAESPDPPQSPQGASSLPTTMNYP [MAGEA3] | 5.23 ± 0.13 | 5.3 ± 0.1
4 | AAFCPQLDDSTVARELAITDSEHS [RETREG3] | 5.26 ± 0.16 | 5.14 ± 0.16
5 | AALNALQPPEFRNESSLASTLKTL [VMA21] | 3.44 ± 0.2 | 3.51 ± 0.18
6 | AAQPMTKKRKVDGLSTEAEQPFIP [PRAME] | 4.43 ± 0.21 | 4.55 ± 0.27
7 | AASPGEAPAASEGAAAPATPTPVA [SNAP91] | 5.38 ± 0.15 | 5.53 ± 0.25
8 | AAVAQKPRSHFTTPAPMSSAWKTV [MYBL2] | 3.06 ± 0.14 | 2.97 ± 0.22
9 | ACIAYIRLTQYMDGSGMPKTMQSE [CAMK2D] | 2.88 ± 0.5 | 2.55 ± 0.59
10 | ADAAEDEEVDVTSVDPIAAFCSSD [RBBP5] | 5.57 ± 0.2 | 5.55 ± 0.2
11 | ADGVKPQTNSTKNSAAATSPKGTL [CAMK2B] | 5.24 ± 0.14 | 5.4 ± 0.3
12 | ADIKQYIGPPSAAAIFKIYLSCLE [TRIP13] | 2.19 ± 0.4 | 2.27 ± 0.22
13 | ADIMISFVRGDHRDNSPFDGPGGN [MMP1] | 2.96 ± 0.31 | 3.07 ± 0.36
14 | ADSLASKVTRLKSLALDIDRDAED [BET1L] | 5.3 ± 0.2 | 5.21 ± 0.21
15 | AEASHYNSDLNNLLFCCQCVDVVF [RHOBTB3] | 2.52 ± 0.49 | 2.54 ± 0.54
16 | AEGARPLRENVPRVIMIVTDGRPQ [MATN2] | 2.83 ± 0.61 | 3.56 ± 0.35
17 | AGNCPECGTPLRKSNFRVQLFEDP [MNAT1] | 3.62 ± 0.33 | 4.08 ± 0.2
18 | AGNNEHCGNIKAPSLQAWNDAPCD [CD207] | 4.75 ± 0.33 | 4.71 ± 0.13
19 | AGSEQKGQIIKDIDSGSPAEEAGL [PDZK1] | 5.61 ± 0.11 | 5.26 ± 0.27
20 | AIILSSCLLGLGSLVLILSLSYTV [SLC2A12] | 3.06 ± 0.4 | 3.26 ± 0.097
21 | AIKCSPSLHVDDRERMELLEEAKK [RIPK4] | 5.12 ± 0.65 | 5.28 ± 0.33
22 | AITTDCLQILAYGNQESKLIILAS [CTNNB1] | 2.85 ± 0.64 | 2.81 ± 0.84
23 | AKEVTIAKADTTSTVTPVPGQEKG [EHMT1] | 5.36 ± 0.28 | 5.52 ± 0.2

Row | Sequence | protein stability index (treatment: DMSO) | protein stability index (treatment: MLN4924 1 uM, 8 h)
24 | AKQRAKEAQERELRKREKAEEKER [LRRC59] | 5.45 ± 0.14 | 5.52 ± 0.36
25 | ALEEADKMFLRTREPALDGGFQMH [EID1] | 3.75 ± 0.066 | 3.64 ± 0.42
26 | ALKDSLRPKLSEEQQRIIAILLDA [VDR] | 2.44 ± 0.2 | 2.44 ± 0.41
27 | ALPENEFKKQIWLLFEYPESSSPA [KCNA4] | 2.45 ± 0.16 | 2.44 ± 0.5
28 | ALQNKDTYEPFCKVPVITSSKEEQ [KCTD10] | 4.4 ± 0.14 | 4.5 ± 0.16
29 | ALQSRAAQRHRGSAKDGGPQPPDA [PLEKHN1] | 4.57 ± 0.49 | 4.96 ± 0.34
30 | ALRNFACLTTGDVIAINYNEKIYE [UFD1] | 2.21 ± 0.49 | 2.29 ± 0.46
31 | ALVAAGGAPEDDEEDDGRGRGLLR [DENND6A] | 5.5 ± 0.15 | 5.33 ± 0.14
32 | ALVVPKGNTAVSVLMLLVALLFTG [SCAMP3] | 2.98 ± 0.75 | 2.62 ± 0.45
33 | AMLKALLGSKHKVCMDLRANLKQV [TNNI2] | 2.42 ± 0.18 | 2.33 ± 0.43
34 | AMVEFVKLLNRCCHLFSTYVASHK [ACBD3] | 2.97 ± 0.19 | 2.85 ± 0.16
35 | APKGKGRKPAAGAQSAGTQQVAAV [BRD3] | 4.98 ± 0.33 | 5.04 ± 0.24
36 | AQEEPWEKKESLGAAQEALSIQLQ [ZNF232] | 4.91 ± 0.4 | 5 ± 0.15
37 | AQLRDAVQSLQLSPRTRGSWSQPQ [RASAL3] | 3.65 ± 0.15 | 3.6 ± 0.35
38 | ARRDAKKLVRSPSGLRMVPEHRAF [ZFYVE21] | 3.11 ± 0.31 | 3.56 ± 0.17
39 | ARSPSGPSGSLENGTKADGKDAKT [TRIM29] | 5.4 ± 0.19 | 5.54 ± 0.094
40 | ARTCAKQNINAPAPATTSSWEVVR [C22orf31] | 3.04 ± 0.4 | 3.22 ± 0.32
41 | ARYGHLDVVEYLVDRCGASVEAGG [FEM1A] | 2.81 ± 0.16 | 2.98 ± 0.43
42 | ASGLGLEITTQFLIYASYFALIAV [SLC19A2] | 3.26 ± 0.26 | 3.13 ± 0.47
43 | ASGQGPMCNVKAPLGSPSPRPRRA [ADAMTS4] | 4.88 ± 0.29 | 5.13 ± 0.15
44 | ASKDPREVREARDHKEPKEEINKN [EHMT1] | 5.5 ± 0.2 | 5.66 ± 0.29
45 | ASNRIIGAKDHASIQMNVAEVSWE [RPS21] | 3.63 ± 0.44 | 3.63 ± 1.4
46 | ATGMFLQYTVPGTEGVTQLKLTVV [ZFYVE21] | 3.29 ± 0.56 | 2.9 ± 0.46

Row | Sequence | protein stability index (treatment: DMSO) | protein stability index (treatment: MLN4924 1 uM, 8 h)
47 | ATGPMGMRGFKGDRGPKGEKGEKG [SCARA5] | 5.22 ± 0.24 | 5.43 ± 0.34
48 | ATPEQGLSAFYLSYFDMLYPEDSS [SPDEF] | 2.75 ± 0.48 | 2.8 ± 0.41
49 | ATYRSLLEGQDAKMIGFPSSAGSV [KRT13] | 3.22 ± 0.4 | 3.54 ± 0.24
50 | AVNLIESGACGAFVHGLEDEMYEV [INTS4] | 3.41 ± 0.24 | 3.45 ± 0.33
51 | AVPTDEARAFAEKNGLSFIETSAL [RAB11A] | 2.9 ± 0.34 | 3.37 ± 0.52
52 | AVVQLYLALPPGAEHWTKEHCGAV [WAS] | 3.03 ± 0.59 | 2.71 ± 0.31
53 | AVVVLDQGSRHWQKLREESAARVV [DUSP5] | 2.85 ± 0.34 | 2.72 ± 0.23
54 | AWPFYKPVDAEALELHDYHDIIKH [BRD3] | 3.04 ± 0.17 | 3.24 ± 0.35
55 | AYRGNCKDVSRCVAERKYTQEQAR [SMOC2] | 3.06 ± 0.19 | 3.38 ± 0.46
56 | CCPTSREAAVEALELLGATYVDKK [FEM1A] | 4.28 ± 0.06 | 4.3 ± 0.049
57 | CETVTCCLFSERDAAGAPRDASDP [SMAD6] | 4.49 ± 0.25 | 4.62 ± 0.12
58 | CFKGELPLRAVHINLEEKEKQIRS [PLEKHN1] | 3.95 ± 0.18 | 3.96 ± 0.33
59 | CGSFQVTTGLQVPSAVRCLQKRGS [FSD1] | 2.96 ± 0.2 | 2.8 ± 0.17
60 | CHEDVEALAAIYEEKEAWYREESD [DAPK3] | 5.1 ± 0.22 | 5.12 ± 0.62
61 | CKDSESNKHLCYVFDSEKCVSIPD [GULP1] | 3.27 ± 0.11 | 3.41 ± 0.35
62 | CLGQLNLEQRSESVRRTRSKIGFG [SMAD6] | 3.06 ± 0.25 | 3.1 ± 0.35
63 | CLMIAAYKGHTDVVRYLLEQRADP [FEM1B] | 2.27 ± 0.14 | 2.35 ± 0.17
64 | CLRKYGNANVWKYFTDLFDYLPLT [PPP2CA] | 2.4 ± 0.57 | 2 ± 0.31
65 | CMYEHGEDTHQSPEPEDEPGGPGA [RSPH3] | 5.42 ± 0.29 | 5.51 ± 0.17
66 | CPTEPPDDSCQDQPGTNCALAIKV [ADAMTSL2] | 4.95 ± 0.31 | 5.03 ± 0.41
67 | CTWSIFQSIEYAGQQDQVKLHDFF [PPEF2] | 2.54 ± 0.62 | 2.37 ± 0.46
68 | CVATTGDITVSVSTSFLPELSSVH [FBXO3] | 2.23 ± 0.27 | 2.14 ± 0.23
69 | CVDRQEVAEITKQLPPVVPVSKPG [TCAP] | 4.7 ± 0.2 | 4.63 ± 0.15

Row | Sequence | protein stability index (treatment: DMSO) | protein stability index (treatment: MLN4924 1 uM, 8 h)
70 | CWDMQGKRFVAMKVVKSAQHYTET [SRPK2] | 2.34 ± 0.34 | 2.54 ± 0.3
71 | DAETSKLIYDFIEDQGGLEAVRQE [WAS] | 4.61 ± 0.24 | 4.76 ± 0.28
72 | DAPEQRLRVMTTNIRSARGNNPNG [ELOA2] | 4.84 ± 0.23 | 4.95 ± 0.23
73 | DARVKRKLRGPEPAATEAYGSGDT [TBX6] | 5.16 ± 0.3 | 5.24 ± 0.22
74 | DCQAGLNFADEDEAQAFRALVQEK [WAS] | 5.17 ± 0.22 | 5.08 ± 0.16
75 | DDTETVPSEQSHASGKLRKKKKKQ [TCF25] | 5.52 ± 0.44 | 5.88 ± 0.17
76 | DDVISRIDRMFPEMSIHLSRPNGT [MED27] | 3.25 ± 0.24 | 3.36 ± 0.25
77 | DDVLPWRRTAENKLDTKYPYVCHA [DCTD] | 3.331 ± 0.026 | 3.31 ± 0.39
78 | DENREVLQTLLYFLSDVTAAVKEN [DLC1] | 2.14 ± 0.28 | 2.33 ± 0.19
79 | DESLTDLEAQPYEAVFLRAVKLYN [P3H4] | 2.58 ± 0.21 | 2.71 ± 0.36
80 | DFDEEYFSNTSELAKDFIRRLLVK [DAPK3] | 2.77 ± 0.28 | 3.12 ± 0.3
81 | DFEFLAFWQTQYNNMNAVNLFFAW [PKD2L1] | 3.17 ± 0.5 | 2.93 ± 0.55
82 | DFGSAAASGSFPSQVTATSGNGDF [CLINT1] | 4.95 ± 0.17 | 4.69 ± 0.26
83 | DGKRVIVVFHCEFSSERGPRMCRY [CDC25A] | 2.64 ± 0.53 | 2.73 ± 0.78
84 | DGNGGQFREVYVGKETMCTVDGLH [TRIM9] | 3.94 ± 0.37 | 4.11 ± 0.28
85 | DGSVLLIPRTMADQQARRQERKPK [NFE2L1] | 3.5 ± 0.14 | 3.63 ± 0.31
86 | DIARMLYKDTCHELDELQLCKNCF [ZMYND11] | 2.27 ± 0.14 | 2.52 ± 0.49
87 | DIKDDIYDPTYKDKEGPSPKVEYV [SCD] | 4.92 ± 0.14 | 4.68 ± 0.17
88 | DINGLRRILDELTLCKADLEAQVE [KRT36] | 3.02 ± 0.33 | 3.14 ± 0.25
89 | DISERPSVDDIESETGSTGALETR [C2CD2L] | 5.56 ± 0.22 | 5.59 ± 0.34
